Measured values as given in patent US20220089698A1 (published 2022).

Assays:
HIV gp120 Bal = HIV gp120 Bal (HIV); test: single-point ELISA; note: test concentration or dose not given here
HIV gp120 CAAN = HIV gp120 CAAN (HIV); test: single-point ELISA; note: test concentration or dose not given here

Binder | ELISA (A450) (HIV gp120 Bal) | ELISA (A450) (HIV gp120 CAAN)
Antibody A-1 (antibody, human IgG1, kappa) heavy: QVQLLQSGAAVTKPGASVRVSCEASGYNIRDYFIHWWRQAPGQGLQWVGWINPKTGQPNNPRQFQGRVSLTRHASWDFDTFSFYMDLKALRSDDTAVYFCARQRSDYWDFDVWGSGTQVTVSSASTKGPSVFPLAPSSKSTSGGTAALGCLVKDYFPEPVTVSWNSGALTSGVHTFPAVLQSSGLYSLSSVVTVPSSSLGTQTYICNVNHKPSNTKVDKKVEPKSCDKTHTCPPCPAPELLAGPDVFLFPPKPKDTLMISRTPEVTCVVVDVSHEDPEVKFNWYVDGVEVHNAKTKPREEQYNSTYRVVSVLTVLHQDWLNGKEYKCKVSNKALPLPEEKTISKAKGQPREPQVYTLPPSREEMTKNQVSLTCLVKGFYPSDIAVEWESNGQPENNYKTTPPVLDSDGSFFLYSKLTVDKSRWQQGNVFSCSVLHEALHSHYTQKSLSLSPGK light: DIQMTQSPSSLSASVGDTVTITCQANGYLNWYQQRRGKAPKLLIYDGSKLERGVPSRFSGRRWGQEYNLTINNLQPEDIATYFCQVYEFVVPGTRLDLKRTVAAPSVFIFPPSDEQLKSGTASVVCLLNNFYPREAKVQWKVDNALQSGNSQESVTEQDSKDSTYSLSSTLTLSKADYEKHKVYACEVTHQGLSSPVTKSFNRGEC | 0.91 | 1.06
1.2.1-1 (antibody, human IgG1, kappa) heavy: QVQLLQSGAEVKKPGASVRVSCEASGYNIRDYFIHWWRQAPGQGLQWVGWINPKTGQPNNPRQFQGRVSLTRHASWDFDTFSFYMDLKALRSDDTAVYFCARQRSDYWDFDVWGSGTMVTVSSASTKGPSVFPLAPSSKSTSGGTAALGCLVKDYFPEPVTVSWNSGALTSGVHTFPAVLQSSGLYSLSSVVTVPSSSLGTQTYICNVNHKPSNTKVDKKVEPKSCDKTHTCPPCPAPELLAGPDVFLFPPKPKDTLMISRTPEVTCVVVDVSHEDPEVKFNWYVDGVEVHNAKTKPREEQYNSTYRVVSVLTVLHQDWLNGKEYKCKVSNKALPLPEEKTISKAKGQPREPQVYTLPPSREEMTKNQVSLTCLVKGFYPSDIAVEWESNGQPENNYKTTPPVLDSDGSFFLYSKLTVDKSRWQQGNVFSCSVLHEALHSHYTQKSLSLSPGK light: DIQMTQSPSSLSASVGDTVTITCQANGYLNWYQQRRGKAPKLLIYDGSKLERGVPSRFSGRRWGQEYNLTINNLQPEDIATYFCQVYEFVVPGTRLDLKRTVAAPSVFIFPPSDEQLKSGTASVVCLLNNFYPREAKVQWKVDNALQSGNSQESVTEQDSKDSTYSLSSTLTLSKADYEKHKVYACEVTHQGLSSPVTKSFNRGEC | 0.93 | 1.01
1.4.1-1 (antibody, human IgG1, kappa) heavy: QVQLVQSGAAVTKPGASVRVSCEASGYNIRDYFIHWWRQAPGQGLQWVGWINPKTGQPNNPRQFQGRVSLTRHASWDFDTFSFYMDLKALRSDDTAVYFCARQRSDYWDFDVWGSGTQVTVSSASTKGPSVFPLAPSSKSTSGGTAALGCLVKDYFPEPVTVSWNSGALTSGVHTFPAVLQSSGLYSLSSVVTVPSSSLGTQTYICNVNHKPSNTKVDKKVEPKSCDKTHTCPPCPAPELLAGPDVFLFPPKPKDTLMISRTPEVTCVVVDVSHEDPEVKFNWYVDGVEVHNAKTKPREEQYNSTYRVVSVLTVLHQDWLNGKEYKCKVSNKALPLPEEKTISKAKGQPREPQVYTLPPSREEMTKNQVSLTCLVKGFYPSDIAVEWESNGQPENNYKTTPPVLDSDGSFFLYSKLTVDKSRWQQGNVFSCSVLHEALHSHYTQKSLSLSPGK light: DIQMTQSPSSLSASVGDTVTITCQANGYLNWYQQRRGKAPKLLIYDGSKLERGVPSRFSGRRWGQEYNLTINNLQPEDIATYFCQVYEFVVPGTRLDLKRTVAAPSVFIFPPSDEQLKSGTASVVCLLNNFYPREAKVQWKVDNALQSGNSQESVTEQDSKDSTYSLSSTLTLSKADYEKHKVYACEVTHQGLSSPVTKSFNRGEC | 1.04 | 0.96
1.3.1-1 (antibody, human IgG1, kappa) heavy: QVSLLQSGAAVTKPGASVRVSCEASGYNIRDYFIHWWRQAPGQGLQWVGWINPKTGQPNNPRQFQGRVSLTRHASWDFDTFSFYMDLKALRSDDTAVYFCARQRSDYWDFDVWGSGTQVTVSSASTKGPSVFPLAPSSKSTSGGTAALGCLVKDYFPEPVTVSWNSGALTSGVHTFPAVLQSSGLYSLSSVVTVPSSSLGTQTYICNVNHKPSNTKVDKKVEPKSCDKTHTCPPCPAPELLAGPDVFLFPPKPKDTLMISRTPEVTCVVVDVSHEDPEVKFNWYVDGVEVHNAKTKPREEQYNSTYRVVSVLTVLHQDWLNGKEYKCKVSNKALPLPEEKTISKAKGQPREPQVYTLPPSREEMTKNQVSLTCLVKGFYPSDIAVEWESNGQPENNYKTTPPVLDSDGSFFLYSKLTVDKSRWQQGNVFSCSVLHEALHSHYTQKSLSLSPGK light: DIQMTQSPSSLSASVGDTVTITCQANGYLNWYQQRRGKAPKLLIYDGSKLERGVPSRFSGRRWGQEYNLTINNLQPEDIATYFCQVYEFVVPGTRLDLKRTVAAPSVFIFPPSDEQLKSGTASVVCLLNNFYPREAKVQWKVDNALQSGNSQESVTEQDSKDSTYSLSSTLTLSKADYEKHKVYACEVTHQGLSSPVTKSFNRGEC | 0.97 | 0.94
1.5.1-1 (antibody, human IgG1, kappa) heavy: QVQLVQSGAAVTKPGASVRVSCKASGYNIRDYFIHWWRQAPGQGLQWVGWINPKTGQPNNPRQFQGRVSLTRHASWDFDTFSFYMDLKALRSDDTAVYFCARQRSDYWDFDVWGSGTQVTVSSASTKGPSVFPLAPSSKSTSGGTAALGCLVKDYFPEPVTVSWNSGALTSGVHTFPAVLQSSGLYSLSSVVTVPSSSLGTQTYICNVNHKPSNTKVDKKVEPKSCDKTHTCPPCPAPELLAGPDVFLFPPKPKDTLMISRTPEVTCVVVDVSHEDPEVKFNWYVDGVEVHNAKTKPREEQYNSTYRVVSVLTVLHQDWLNGKEYKCKVSNKALPLPEEKTISKAKGQPREPQVYTLPPSREEMTKNQVSLTCLVKGFYPSDIAVEWESNGQPENNYKTTPPVLDSDGSFFLYSKLTVDKSRWQQGNVFSCSVLHEALHSHYTQKSLSLSPGK light: DIQMTQSPSSLSASVGDTVTITCQANGYLNWYQQRRGKAPKLLIYDGSKLERGVPSRFSGRRWGQEYNLTINNLQPEDIATYFCQVYEFVVPGTRLDLKRTVAAPSVFIFPPSDEQLKSGTASVVCLLNNFYPREAKVQWKVDNALQSGNSQESVTEQDSKDSTYSLSSTLTLSKADYEKHKVYACEVTHQGLSSPVTKSFNRGEC | 0.92 | 1.07
1.7.1-1 (antibody, human IgG1, kappa) heavy: QVQLLQSGAEVKKPGASVRVSCEASGYNIRDYFIHWWRQAPGQGLQWVGWINPKTGQPNNPRQFQGRVSLTRHASWDFDTFSFYMDLKALRSDDTAVYFCARQRSDYWDFDVWGSGTQVTVSSASTKGPSVFPLAPSSKSTSGGTAALGCLVKDYFPEPVTVSWNSGALTSGVHTFPAVLQSSGLYSLSSVVTVPSSSLGTQTYICNVNHKPSNTKVDKKVEPKSCDKTHTCPPCPAPELLAGPDVFLFPPKPKDTLMISRTPEVTCVVVDVSHEDPEVKFNWYVDGVEVHNAKTKPREEQYNSTYRVVSVLTVLHQDWLNGKEYKCKVSNKALPLPEEKTISKAKGQPREPQVYTLPPSREEMTKNQVSLTCLVKGFYPSDIAVEWESNGQPENNYKTTPPVLDSDGSFFLYSKLTVDKSRWQQGNVFSCSVLHEALHSHYTQKSLSLSPGK light: DIQMTQSPSSLSASVGDTVTITCQANGYLNWYQQRRGKAPKLLIYDGSKLERGVPSRFSGRRWGQEYNLTINNLQPEDIATYFCQVYEFVVPGTRLDLKRTVAAPSVFIFPPSDEQLKSGTASVVCLLNNFYPREAKVQWKVDNALQSGNSQESVTEQDSKDSTYSLSSTLTLSKADYEKHKVYACEVTHQGLSSPVTKSFNRGEC | 0.98 | 1.04
1.2.2-1 (antibody, human IgG1) heavy: QVQLLQSGAEVKKPGASVRVSCEASGYNIRDYFIHWWRQAPGQGLQWVGWINPKTGQPNNPRQFQGRVSLTRHASWDFDTFSFYMDLKALRSDDTAVYFCARQRSDYWDFDVWGSGTMVTVSSASTKGPSVFPLAPSSKSTSGGTAALGCLVKDYFPEPVTVSWNSGALTSGVHTFPAVLQSSGLYSLSSVVTVPSSSLGTQTYICNVNHKPSNTKVDKKVEPKSCDKTHTCPPCPAPELLAGPDVFLFPPKPKDTLMISRTPEVTCVVVDVSHEDPEVKFNWYVDGVEVHNAKTKPREEQYNSTYRVVSVLTVLHQDWLNGKEYKCKVSNKALPLPEEKTISKAKGQPREPQVYTLPPSREEMTKNQVSLTCLVKGFYPSDIAVEWESNGQPENNYKTTPPVLDSDGSFFLYSKLTVDKSRWQQGNVFSCSVLHEALHSHYTQKSLSLSPGK VL: DIQMTQSPSSLSASVGDTVTITCQANGYLNWYQQKPGKAPKLLIYDGSKLERGVPSRFSGRRWGQEYNLTINNLQPEDIATYFCQVYEFVVPGTKVDIK | 0.91 | 0.8
1.6.1-1 (antibody, human IgG1, kappa) heavy: QVQLLQSGAEVTKPGASVRVSCEASGYNIRDYFIHWWRQAPGQGLQWVGWINPKTGQPNNPRQFQGRVSLTRHASWDFDTFSFYMDLKALRSDDTAVYFCARQRSDYWDFDVWGSGTQVTVSSASTKGPSVFPLAPSSKSTSGGTAALGCLVKDYFPEPVTVSWNSGALTSGVHTFPAVLQSSGLYSLSSVVTVPSSSLGTQTYICNVNHKPSNTKVDKKVEPKSCDKTHTCPPCPAPELLAGPDVFLFPPKPKDTLMISRTPEVTCVVVDVSHEDPEVKFNWYVDGVEVHNAKTKPREEQYNSTYRVVSVLTVLHQDWLNGKEYKCKVSNKALPLPEEKTISKAKGQPREPQVYTLPPSREEMTKNQVSLTCLVKGFYPSDIAVEWESNGQPENNYKTTPPVLDSDGSFFLYSKLTVDKSRWQQGNVFSCSVLHEALHSHYTQKSLSLSPGK light: DIQMTQSPSSLSASVGDTVTITCQANGYLNWYQQRRGKAPKLLIYDGSKLERGVPSRFSGRRWGQEYNLTINNLQPEDIATYFCQVYEFVVPGTRLDLKRTVAAPSVFIFPPSDEQLKSGTASVVCLLNNFYPREAKVQWKVDNALQSGNSQESVTEQDSKDSTYSLSSTLTLSKADYEKHKVYACEVTHQGLSSPVTKSFNRGEC | 0.95 | 0.9
1.8.1-1 (antibody, human IgG1, kappa) heavy: QVQLVQSGAEVTKPGASVRVSCEASGYNIRDYFIHWWRQAPGQGLQWVGWINPKTGQPNNPRQFQGRVSLTRHASWDFDTFSFYMDLKALRSDDTAVYFCARQRSDYWDFDVWGSGTQVTVSSASTKGPSVFPLAPSSKSTSGGTAALGCLVKDYFPEPVTVSWNSGALTSGVHTFPAVLQSSGLYSLSSVVTVPSSSLGTQTYICNVNHKPSNTKVDKKVEPKSCDKTHTCPPCPAPELLAGPDVFLFPPKPKDTLMISRTPEVTCVVVDVSHEDPEVKFNWYVDGVEVHNAKTKPREEQYNSTYRVVSVLTVLHQDWLNGKEYKCKVSNKALPLPEEKTISKAKGQPREPQVYTLPPSREEMTKNQVSLTCLVKGFYPSDIAVEWESNGQPENNYKTTPPVLDSDGSFFLYSKLTVDKSRWQQGNVFSCSVLHEALHSHYTQKSLSLSPGK light: DIQMTQSPSSLSASVGDTVTITCQANGYLNWYQQRRGKAPKLLIYDGSKLERGVPSRFSGRRWGQEYNLTINNLQPEDIATYFCQVYEFVVPGTRLDLKRTVAAPSVFIFPPSDEQLKSGTASVVCLLNNFYPREAKVQWKVDNALQSGNSQESVTEQDSKDSTYSLSSTLTLSKADYEKHKVYACEVTHQGLSSPVTKSFNRGEC | 0.86 | 0.9
